The supplement of paper PMC10567573

B1: FBXO39 (parent)
chain: RVFKARIYTNRYETNEEDKTLQEI
B2: VDR (parent)
chain: VTLELSQLSMLPHLADLVSYSIQK

Variants of: B1
Test: protein stability index of a GFP-peptide fusion (GPS, HEK-293T) (PSI 1-6); higher = more stable
Conditions: c terminus: a fixed tail appended
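Further: lentivirally expressed fusions sorted by FACS into six bins by GFP to DsRed ratio, PSI derived from sequencing read proportions per bin multiplied by bin number.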

Protein stability index, by site and new letter:
R1: L 2.74, T 2.72, M 3.34, H 3.35, I 3.15, A 2.84, D 3.95, W 2.08, K 2.6, P 4.26, S 2.72, F 1.66, Q 3.74, C 1.7, Y 2.14, G 3.42, V 1.66
A5: Y 2.19, L 3.33, K 2.69, T 2.1, I 2.2, G 3.1, D 4.39, S 2.71, E 4.48, R 3.49, P 3.05, H 3.04, N 3.95, V 1.67, C 3.51, Q 2.7, F 1.63, M 3.02, W 2.34
F3: T 4.88, Y 2.59, Q 4.59, M 4.41, K 4.32, I 4.61, G 4.12, S 4.54, P 4.55, V 4.15, R 4.71, W 2.65, E 5.23, C 2.82, H 4.63, A 4.19, D 5.46, L 3.05, N 4.76
R11: E 3.57, Y 2.5, I 2.46, S 3.38, C 2.05, K 2.88, N 2.53, P 3.36, T 3.75, Q 3.2, A 2.01, M 2.93, G 3.36, L 2.59, H 2.34, V 2.18, D 3.23, W 2.19
Y8: V 3.08, W 2.16, T 2.93, S 3.13, A 3.84, Q 2.77, M 2.77, G 3.46, H 3.27, I 2.73, P 2.45, R 3.15, E 3.93, K 3.22, N 3.97, D 4.51, C 3.78, L 3.21, F 2.91
R6: E 4.25, G 3.7, W 1.92, N 3.72, I 1.9, T 3.79, H 2.83, C 2.77, M 1.99, K 3.01, A 3.66, Q 3.71, S 3.37, Y 2.62, F 1.41, P 4.08, V 2.21, D 4.04
E13: V 1.99, N 2, W 2.53, A 3.08, K 2.4, T 2.15, Y 1.69, I 1.92, D 2.48, Q 2.98, R 2.79, H 1.85, G 2.81, L 3.1, F 2.07, S 2.81, M 2.6
K4: Q 4.48, R 3.12, A 2.55, H 3.52, N 3.6, C 2.83, S 3.6, D 4.08, T 4.72, V 2.16, L 1.99, M 2.65, F 2.03, G 3.59, P 4.27, Y 2.11, I 1.88, E 3.81
N15: F 1.99, D 2.86, H 3.27, I 2.9, A 2.92, G 2.5, C 1.86, E 2.96
T14: I 2.28, E 2.62, F 2.52, A 1.65, L 3.06, C 2, D 3.34, N 2.21, P 3.2, S 3.12, Q 2.62, W 1.66, V 2.06, K 2.5, R 2.36, G 2.29, H 2.5, M 3.75, Y 2.67
N10: E 3.31, R 2.6, A 2.31, K 3.01, L 2.11, P 2.21, V 2.15, S 3.06, G 2.75, D 2.61, H 2.82, F 1.93, M 3.04, Q 3.36, I 2.73, C 2.29, W 2.2, T 2.45
V2: G 3.69, R 4.24, K 3.36, S 4.22, M 3.98, H 3.85, F 3.18, L 3.19, C 2.87, N 4.09, Q 3.37, D 4.76, W 2.45, T 2.89, E 4.36, I 2.51, P 4.56
Y12: F 3.33, N 3.13, E 3.58, M 2.13, S 3.36, C 2.07, I 3.29, G 3.13, P 2.91, L 2.1, K 2.99, T 3.29, W 2.34, D 3.89, H 2.79, Q 3.88, A 3.15
I7: S 3.39, K 2.24, Y 2.39, A 3.14, E 3.24, P 4.12, D 4.26, C 2.74, Q 2.74, G 3.64, W 3.15, F 2.67, H 2.54, M 2.67, R 2.43, T 3, N 2.7, L 2.9
T9: M 3.24, P 3.15, W 1.92, Y 2.16, L 2.54, F 1.82, I 2.21, H 2.47, D 3.38, K 3.08, V 2.32, A 3.18, E 3.24, R 3.04, Q 2.73, S 2.18, N 2.87, G 2.49

Variants of: B2
Test: as above
Conditions: c terminus: a fixed tail appended

Protein stability index, by site and new letter:
Y20: S 2.92, N 1.81, F 2.41, D 1.35, Q 3.29
V18: K 2.69, D 2.24, W 3.29
S9: A 2.74, N 3.47, V 2.74, I 3.23, C 2.37
L3: N 1.5, Q 1.96, I 2.53, H 1.6, Y 2.81, R 1.53, E 1.84
H13: E 3.51, R 2.16, Q 1.8
D16: A 3.1, L 3.77, M 3.71
L5: V 2.65, K 1.85, C 2.54
S19: N 3.84, E 2.05, W 3.07
L11: K 3.55, R 1.94
M10: Q 2.65, F 1.99
S6: P 2.29, Y 2.27, D 2.16
S21: K 2.89, M 1.43
L14: S 1.66, G 1.71, W 2.95
L17: T 2.47, P 2.77, H 1.98, R 1.62, E 1.87
E4: H 2.02, I 3.27
Q7: P 2.45, K 2.59, R 2.33
P12: C 3.89, D 3.28
K24: D 3.06, L 1.86, V 5.45
Q23: P 1.68
L8: E 1.65, W 1.82, T 2.85, A 2.74, G 1.62, V 3.88, S 2.16
A15: V 3.02, Y 4.33
T2: N 3.11
I22: T 1.87, P 1.55, C 4.35, Y 3.63
